Target: murine PD-L1 on CHO-K1 cells (murine, UniProt Q9EP73 19-290)
Assay: cell-based or functional assay

Chain of murine PD-L1 on CHO-K1 cells (Q9EP73 19-290): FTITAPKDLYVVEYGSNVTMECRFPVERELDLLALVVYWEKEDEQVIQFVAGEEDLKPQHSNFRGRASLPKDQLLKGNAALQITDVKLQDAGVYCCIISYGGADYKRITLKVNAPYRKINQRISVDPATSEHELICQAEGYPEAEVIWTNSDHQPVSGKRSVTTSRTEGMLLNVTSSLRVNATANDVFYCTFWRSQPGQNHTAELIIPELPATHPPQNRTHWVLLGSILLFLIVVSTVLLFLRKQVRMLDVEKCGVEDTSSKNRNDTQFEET

B1: monomeric form of soluble PD-1 (sPD-1) of the ecto-domain of murine PD-1 (receptor)
chain: MHHHHHHLEVPNGPWRSLTFYPAWLTVSEGANATFTCSLSNWSEDLMLNWNRLSPSNQTEKQAAFCNGLSQPVQDARFQIIQLPNRHDFHMNILDTRRNDSGIYLCGAISLHPKAKIEESPGAELVVT
  half maximal effective concentration (EC50), NFAT-mediated luciferase expression, bioluminescent PD-1/PD-L1 blockade bioassay: 457 nM

Source: patent US20220409550A1 (KOREA INSTITUTE OF SCIENCE AND TECHNOLOGY, published 2022)
